Reference: patent US20110091994A1, “Methods for Screening Compounds for Treating and/or Preventing an Hepatitis C Virus Infection” (priority 2008, published 2011)

Legend:
[1] = biological target: T1, HCV ORFs (Gal4-DB fusions) (Hepatitis C virus genotype 1b, UniProt Q9WMX2); assay type: binding, HCV genotype 1b, isolate con1; details: human protein as prey
T1 construct: expressed in transfected cells; host or cells: Saccharomyces cerevisiae MAV203 (IMAP1) / AH109 (IMAP2)

[2] = test system: HCV ORFs (Gal4-DB fusions); assay type: binding, HCV genotype 1b, isolate con1; details: human protein listed by gene symbol; the value names the HCV protein it interacts with
[3] = biological target: T2, GST-tagged viral proteins (Hepatitis C virus genotype 1b, UniProt Q9WMX2); assay: Validation by co-affinity purification (CoAP); assay type: binding, HCV genotype 1b, isolate con1; set-up: key: +: IMAP validation; −: not validated; NA: non assayable due to default of protein expression or to cellular protein directly interacting with GST; details: interaction with HCV protein NS5A
T2 construct: expressed in transfected cells; host or cells: HEK-293T
Procedure, shortened: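 HEK-293T cells were co-transfected with N-terminal GST-tagged HCV bait and 3xFLAG-tagged human prey ORFs, with GST alone as control. Two days later, lysates (0.5% NP-40, pH 8.0) were pulled down on glutathione beads. Preys were detected by anti-FLAG immunoblot after SDS-PAGE.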

HCV proteins = biological target: T3, HCV proteins (Hepatitis C virus genotype 1b, UniProt Q9WMX2); assay: Validation by Y2H pairwise matrices; assay type: binding; details: validation of interaction with HCV protein NS3;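 note: yeast two-hybrid pairwise tests of interactions first found in Y2H screens of HCV bait proteins against human cDNA libraries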
T3 construct: expressed in transfected cells
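Throughout, for IMAP Y2H IMAP1 (number of IST): yeast two-hybrid screens using HCV genotype 1b proteins fused to Gal4-DB as baits against prey cDNA libraries from human spleen and foetal brain, IMAP1 via transformation and IMAP2 via mating.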
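Throughout, for IMAP Y2H IMAP2 (number of IST): yeast two-hybrid screens using HCV genotype 1b proteins fused to Gal4-DB as baits against prey cDNA libraries from human spleen and foetal brain, IMAP1 via transformation and IMAP2 via mating.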
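Throughout, for Interaction with viral protein: yeast two-hybrid screens using HCV genotype 1b proteins fused to Gal4-DB as baits against prey cDNA libraries from human spleen and foetal brain, IMAP1 via transformation and IMAP2 via mating.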

T2 sequence (Q9WMX2 1973-2419): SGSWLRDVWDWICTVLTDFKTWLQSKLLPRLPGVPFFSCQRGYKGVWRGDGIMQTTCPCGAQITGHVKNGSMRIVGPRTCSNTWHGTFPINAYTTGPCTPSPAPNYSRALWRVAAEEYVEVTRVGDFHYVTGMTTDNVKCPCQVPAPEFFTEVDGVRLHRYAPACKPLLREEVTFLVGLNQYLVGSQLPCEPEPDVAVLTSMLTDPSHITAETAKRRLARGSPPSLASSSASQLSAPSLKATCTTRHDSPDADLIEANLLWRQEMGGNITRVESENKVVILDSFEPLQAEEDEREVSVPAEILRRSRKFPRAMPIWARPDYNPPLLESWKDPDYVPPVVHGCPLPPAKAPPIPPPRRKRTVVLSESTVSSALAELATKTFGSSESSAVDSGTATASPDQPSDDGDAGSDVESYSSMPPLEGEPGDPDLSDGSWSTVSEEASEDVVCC
T3 sequence (Q9WMX2 1027-1657): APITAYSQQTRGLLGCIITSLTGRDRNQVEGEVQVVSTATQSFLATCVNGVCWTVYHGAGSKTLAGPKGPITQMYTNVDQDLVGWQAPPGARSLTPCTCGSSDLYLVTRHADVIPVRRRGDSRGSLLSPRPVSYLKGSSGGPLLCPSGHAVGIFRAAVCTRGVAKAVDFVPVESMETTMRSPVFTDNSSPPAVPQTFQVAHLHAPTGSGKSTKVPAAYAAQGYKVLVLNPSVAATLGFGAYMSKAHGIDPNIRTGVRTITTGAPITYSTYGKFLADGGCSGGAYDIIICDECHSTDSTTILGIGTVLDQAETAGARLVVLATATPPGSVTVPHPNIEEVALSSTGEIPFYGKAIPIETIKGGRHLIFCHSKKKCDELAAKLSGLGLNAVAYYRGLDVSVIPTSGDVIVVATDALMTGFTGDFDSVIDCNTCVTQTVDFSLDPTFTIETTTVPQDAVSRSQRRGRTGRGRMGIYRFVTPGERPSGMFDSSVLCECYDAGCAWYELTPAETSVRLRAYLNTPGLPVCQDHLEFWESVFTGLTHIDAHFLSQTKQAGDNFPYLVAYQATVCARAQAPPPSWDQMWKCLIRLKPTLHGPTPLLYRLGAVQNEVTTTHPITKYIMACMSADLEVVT

B1: TXNDC11 (protein, UniProt Q6PKC3 1-985, looked up)
Thioredoxin domain-containing …: MSECGGRGGGSSSSEDAEDEGGGGGGPAGSDCLSSSPTLATASSAGRLRRGLRGAFLMARQRPELLCGAVALGCALLLALKFTCSRAKDVIIPAKPPVSFFSLRSPVLDLFQGQLDYAEYVRRDSEVVLLFFYAPWCGQSIAARAEIEQAASRLSDQVLFVAINCWWNQGKCRKQKHFFYFPVIYLYHRSFGPIEYKGPMSAVYIEKFVRRVMKPLLYIPSQSELLDFLSNYEPGVLGYFEFSGSPQPPGYLTFFTSALHSLKKALESTSSPRALVSFTGEWHLETKIYVLDYLGTVRFGVITNKHLAKLVSLVHSGSVYLHRHFNTSLVFPREVLNYTAENICKWALENQETLFRWLRPHGGKSLLLNNELKKGPALFLFIPFNPLAESHPLIDEITEVALEYNNCHGDQVVERLLQHLRRVDAPVLESLALEVPAQLPDPPTITASPCCNTVVLPQWHSFSRTHNVCELCVNQTSGGMKPSSVSVPQCSFFEMAAALDSFYLKEQTFYHVASDSIECSNFLTSYSPFSYYTACCRTISRGVSGFIDSEQGVFEAPTVAFSSLEKKCEVDAPSSVPHIEENRYLFPEVDMTSTNFTGLSCRTNKTLNIYLLDSNLFWLYAERLGAPSSTQVKEFAAIVDVKEESHYILDPKQALMKLTLESFIQNFSVLYSPLKRHLIGSGSAQFPSQHLITEVTTDTFWEVVLQKQDVLLLYYAPWCGFCPSLNHIFIQLARNLPMDTFTVARIDVSQNDLPWEFMVDRLPTVLFFPCNRKDLSVKYPEDVPITLPNLLRFILHHSDPASSPQNVANSPTKECLQSEAVLQRGHISHLEREIQKLRAEISSLQRAQVQVESQLSSARRDEHRLRQQQRALEEQHSLLHAHSEQLQALYEQKTRELQELARKLQELADASENLLTENTWLKILVATMERKLEGRDGAESLAAQREVHPKQPEPSATPQLPGSSPPPANVSATLVSERNKENRTD
IMAP Y2H IMAP1 (number of IST) ([1]; HCV protein NS3 as bait): 2 | IMAP Y2H IMAP2 (number of IST) ([1]; HCV protein NS5A as bait): 1 | Interaction with viral protein [2]: NS3 | CoAP [3]: + | Y2H matrices (HCV proteins): +
